According to the supplement of paper PMC9732359:
± gives the uncertainty stated by the source.

assay: protein stability index of a GFP-peptide fusion (yeast GPS) (PSI 1-4); higher = more stable; sorted into four equal gates, so the index is relative within each strain; settings: doa10∆
In short: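 Plasmids isolated from each sorting gate were PCR-amplified and Illumina-sequenced, and barcodes assigned the reads to strains. The gates, four of equal size, were set by GFP/Cherry fluorescence ratio on mid-log cultures in leucine-free medium. These cultures were yeast carrying a pooled library of tiled 17-residue yeast protein peptides fused downstream of GFP on a plasmid that also expresses Cherry. The protein stability index is the sum of every gate's read frequency times its gate number.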

Sequence | protein stability index
AAASESDVAKQLASFGY [RPL16B] | 2.67 ± 0.032
AAATFPIAQPATDVEAR [RPL13A] | 2.65 ± 0.05
AAEGLCKLFLADVFTDD [YCG1] | 3.25 ± 0.061
AAGTSQARTATLKYICA [RPC10] | 2.16 ± 0.15
AAKKRRPAAKGKNLSFK [RRP6] | 2.35 ± 0.24
AALANANNNINSASSAP [SWI1] | 2.55 ± 0.088
AALERLKIFEGIPPPYD [RPL16B] | 1.62 ± 0.12
AALGMGLCMLGTGKPEA [RPN2] | 3.46 ± 0.13
AALYKEVYNVIASDGSY [RPO21] | 2.34 ± 0.089
AANEGTAVSFVSAAEDE [PRP28] | 2.96 ± 0.24
AATNETFENINSLFYLK [IRR1] | 2.43 ± 0.25
AATVHTATSSSIILSDK [SSN2] | 2.19 ± 0.043
ACEPTAEKFVPIDIFQI [SIR3] | 2.72 ± 0.092
ACGAFININEFALPAGS [CDC53] | 2.36 ± 0.096
ACVPLLPPPEDVAFLKT [RPN1] | 2.65 ± 0.053
ADLDSLIIRNDSLSGAV [RPT3] | 3.12 ± 0.077
ADLESFANNHFLNSNAV [COR1] | 2.63 ± 0.11
ADLQGSEDHSFRKIKLR [RPS1A] | 3.17 ± 0.051
ADPVALYLGLKRGEVVK [RPB5] | 1.67 ± 0.24
ADVLYKTAFKPHELTES [QCR2] | 3.11 ± 0.062

Sequence | protein stability index
ADVSKLMYSITFHHHGR [SRB2] | 2.82 ± 0.053
ADWDPESMAYTAFQTQR [YML031W/NDC1] | 2.89 ± 0.14
ADYNGALLRVTKSKNKT [POP4] | 2.61 ± 0.066
AEASGEAADEADEADEE [RPS9A] | 3.35 ± 0.23
AEDQILANFVAKGFYHT [SRB8] | 2.91 ± 0.092
AEGQTNSISDFLGEQVN [RPN1] | 3.06 ± 0.079
AELEELEEFEFKHGPMS [SMD2] | 3.42 ± 0.078
AELELVDSLDPFSEGVT [SMC4] | 2.84 ± 0.072
AELLVLKILKQVMEEKL [PUP2] | 2.73 ± 0.16
AESFTDEADSSMTEASV [SNF2] | 3.36 ± 0.094
AFKATNQTNINSLAVRG [SCL1] | 3.1 ± 0.11
AFKKIDAITVKDVKAWA [COR1] | 2.06 ± 0.076
AFKSVVSTETFEQPSQR [RPL27A] | 2.88 ± 0.062
AFPHLYNSRPRSVRIPW [PRP8] | 2.94 ± 0.1
AFPNASKKNRPTLQVGD [RRP40] | 2.09 ± 0.19
AFRTIESKSDDNSATSY [RRI1] | 3.06 ± 0.079
AFSPLTTTRIQSQQAQP [MED2] | 2.7 ± 0.055
AGDLRALDTVTNVLNFI [FAS1] | 3.04 ± 0.1
AGHVSGVITVHNVFSKE [RPN14] | 1.85 ± 0.15
AGKVKSQTPKVEKTEKP [RPS30A] | 3.18 ± 0.078

same assay, conditions: pdr5∆

Sequence | protein stability index
AAASESDVAKQLASFGY [RPL16B] | 2.62 ± 0.028
AAATFPIAQPATDVEAR [RPL13A] | 2.38 ± 0.042
AAEGLCKLFLADVFTDD [YCG1] | 3.26 ± 0.061
AAGTSQARTATLKYICA [RPC10] | 2.07 ± 0.11
AAKKRRPAAKGKNLSFK [RRP6] | 2.77 ± 0.14
AALANANNNINSASSAP [SWI1] | 1.91 ± 0.068
AALERLKIFEGIPPPYD [RPL16B] | 2.52 ± 0.089
AALGMGLCMLGTGKPEA [RPN2] | 3.32 ± 0.094
AALYKEVYNVIASDGSY [RPO21] | 1.77 ± 0.1
AANEGTAVSFVSAAEDE [PRP28] | 3.46 ± 0.23
AATNETFENINSLFYLK [IRR1] | 2.37 ± 0.21
AATVHTATSSSIILSDK [SSN2] | 2.29 ± 0.032
ACEPTAEKFVPIDIFQI [SIR3] | 2.71 ± 0.059
ACGAFININEFALPAGS [CDC53] | 2.53 ± 0.091
ACVPLLPPPEDVAFLKT [RPN1] | 2.4 ± 0.053
ADLDSLIIRNDSLSGAV [RPT3] | 3.06 ± 0.058
ADLESFANNHFLNSNAV [COR1] | 2.87 ± 0.074
ADLQGSEDHSFRKIKLR [RPS1A] | 3.13 ± 0.061
ADPVALYLGLKRGEVVK [RPB5] | 1.6 ± 0.15
ADVLYKTAFKPHELTES [QCR2] | 3.17 ± 0.059
ADVSKLMYSITFHHHGR [SRB2] | 3.01 ± 0.056

Sequence | protein stability index
ADWDPESMAYTAFQTQR [YML031W/NDC1] | 3.34 ± 0.11
ADYNGALLRVTKSKNKT [POP4] | 2.14 ± 0.058
AEASGEAADEADEADEE [RPS9A] | 3.03 ± 0.28
AEDQILANFVAKGFYHT [SRB8] | 3.25 ± 0.055
AEGQTNSISDFLGEQVN [RPN1] | 2.89 ± 0.067
AELEELEEFEFKHGPMS [SMD2] | 3.41 ± 0.063
AELELVDSLDPFSEGVT [SMC4] | 2.64 ± 0.061
AELLVLKILKQVMEEKL [PUP2] | 2.75 ± 0.087
AENLLQLKTGLAAIVST [YGL172W/NUP49] | 3.3 ± 0.19
AESFTDEADSSMTEASV [SNF2] | 3.19 ± 0.092
AFKATNQTNINSLAVRG [SCL1] | 3.21 ± 0.085
AFKKIDAITVKDVKAWA [COR1] | 1.91 ± 0.072
AFKSVVSTETFEQPSQR [RPL27A] | 2.82 ± 0.059
AFPHLYNSRPRSVRIPW [PRP8] | 2.45 ± 0.084
AFPNASKKNRPTLQVGD [RRP40] | 2.75 ± 0.11
AFRTIESKSDDNSATSY [RRI1] | 3.26 ± 0.079
AFSPLTTTRIQSQQAQP [MED2] | 2.83 ± 0.044
AGDLRALDTVTNVLNFI [FAS1] | 3.22 ± 0.14
AGHVSGVITVHNVFSKE [RPN14] | 1.75 ± 0.14
AGKVKSQTPKVEKTEKP [RPS30A] | 2.9 ± 0.093
